Patent publication US20150065381A1
“And” between values parts separate entries of the source, which are not always exact repeats. Equal entries are not always repeated.

Legend:
[1] = target: HIV-1 envelope of gp160 clone B-Acute-009-c08 (HIV-1); test: capture ELISA, original data
[2] = target: HIV-1 envelope of gp160 clone B-Acute-009-c08 (HIV-1); test: capture ELISA, plate 2, mAb 7.5 ug/ml
[3] = target: HIV-1 envelope clone BF-002.c08 (multiclade gp160 clone panel) (HIV-1); test: capture ELISA, plate 2, mAb 7.5 ug/ml
[4] = target: HIV-1 JRCSF envelope (HIV-1) (UniProt P20871); test: capture ELISA, plate 2, mAb 7.5 ug/ml
[5] = target: HIV-1 envelope of gp160 clone B-Chronic-014.c02 (HIV-1); test: capture ELISA, plate 2, mAb 7.5 ug/ml
[6] = target: HIV-1 envelope clone F1-002.c16 (multiclade gp160 clone panel) (HIV-1); test: capture ELISA, plate 2, mAb 7.5 ug/ml
[7] = target: HIV-1 envelope clone G-011.c02 (multiclade gp160 clone panel) (HIV-1); test: capture ELISA, plate 2, mAb 7.5 ug/ml
[8] = target: HIV-1 envelope of gp160 clone AG-010.c14 (HIV-1); test: capture ELISA, plate 2, mAb 7.5 ug/ml
[9] = target: HIV-1 envelope of gp160 clone B-Acute-010.c09 (HIV-1); test: capture ELISA, plate 2, mAb 7.5 ug/ml
[10] = target: HIV-1 envelope of gp160 clone AG-010.c11 (HIV-1); test: capture ELISA, plate 2, mAb 7.5 ug/ml
[11] = target: JRFL envelope (gp120 monomer released from lysed pseudovirus) (HIV-1) (UniProt P20871); test: antigen capture ELISA, mAb 7.5 ug/ml, plate 2
[12] = target: 16055 envelope (gp120 monomer released from lysed pseudovirus) (HIV-1); test: antigen capture ELISA, mAb 7.5 ug/ml, plate 2
[13] = target: JRFL envelope (gp120 monomer released from lysed pseudovirus) (HIV-1) (UniProt P20871); test: antigen capture ELISA, mAb 7.5 ug/ml, plate 1
[14] = target: 16055 envelope (gp120 monomer released from lysed pseudovirus) (HIV-1); test: antigen capture ELISA, mAb 7.5 ug/ml, plate 1
[15] = target: JRFL envelope (gp120 monomer released from lysed pseudovirus) (HIV-1) (UniProt P20871); test: antigen capture ELISA, mAb 0.3 ug/ml, plate 2
[16] = target: 16055 envelope (gp120 monomer released from lysed pseudovirus) (HIV-1); test: antigen capture ELISA, mAb 0.3 ug/ml, plate 2
[17] = target: JRFL envelope (gp120 monomer released from lysed pseudovirus) (HIV-1) (UniProt P20871); test: antigen capture ELISA, mAb 0.8 ug/ml, plate 1
[18] = target: 16055 envelope (gp120 monomer released from lysed pseudovirus) (HIV-1); test: antigen capture ELISA, mAb 0.8 ug/ml, plate 1
[19] = target: JRFL envelope (gp120 monomer released from lysed pseudovirus) (HIV-1) (UniProt P20871); test: antigen capture ELISA, mAb 0.3 ug/ml, plate 1
[20] = target: 16055 envelope (gp120 monomer released from lysed pseudovirus) (HIV-1); test: antigen capture ELISA, mAb 0.3 ug/ml, plate 1
[21] = target: JRFL envelope (gp120 monomer released from lysed pseudovirus) (HIV-1) (UniProt P20871); test: antigen capture ELISA, mAb 2.5 ug/ml, plate 1
[22] = target: 16055 envelope (gp120 monomer released from lysed pseudovirus) (HIV-1); test: antigen capture ELISA, mAb 2.5 ug/ml, plate 1
[23] = target: JRFL envelope (gp120 monomer released from lysed pseudovirus) (HIV-1) (UniProt P20871); test: antigen capture ELISA, mAb 0.8 ug/ml, plate 2
[24] = target: 16055 envelope (gp120 monomer released from lysed pseudovirus) (HIV-1); test: antigen capture ELISA, mAb 0.8 ug/ml, plate 2
[25] = target: JRFL envelope (gp120 monomer released from lysed pseudovirus) (HIV-1) (UniProt P20871); test: antigen capture ELISA, mAb 2.5 ug/ml, plate 2
[26] = target: 16055 envelope (gp120 monomer released from lysed pseudovirus) (HIV-1); test: antigen capture ELISA, mAb 2.5 ug/ml, plate 2

| Substance | ELISA OD [1] | ELISA OD [2] | ELISA OD [3] | ELISA OD [4] | ELISA OD [5] | ELISA OD [6] | ELISA OD [7] | ELISA OD [8] | ELISA OD [9] | ELISA OD [10] | ELISA OD [11] | ELISA OD [12] | ELISA OD [15] | ELISA OD [16] | ELISA OD [17] | ELISA OD [18] | ELISA OD [19] | ELISA OD [20] | ELISA OD [23] | ELISA OD [24] | also measured |
| --- | --- | --- | --- | --- | --- | --- | --- | --- | --- | --- | --- | --- | --- | --- | --- | --- | --- | --- | --- | --- | --- |
| PGT151 (antibody) | 0.264 OD | 0.191 OD | 0.102 OD | 0.098 OD and 0.121 OD | 0.462 OD | 0.138 OD | 0.197 OD | 0.191 OD | 0.121 OD | 0.116 OD |  |  |  |  |  |  |  |  |  |  |  |
| PG9 (antibody) |  | 0.114 OD |  | 0.211 OD and 0.205 OD | 1.48 OD |  | 0.099 OD | 0.852 OD | 0.151 OD | 0.65 OD |  |  |  |  |  |  |  |  |  |  |  |
| PGV04 (antibody) |  | 0.459 OD | 3.2 OD | 2.78 OD and 2.65 OD | 4 OD | 0.626 OD | 1.25 OD | 1.68 OD | 3.44 OD | 0.22 OD | 2.49 OD and 2.36 OD | 0.108 OD and 0.113 OD | 0.395 OD and 0.44 OD | 0.079 OD and 0.122 OD | 0.673 OD and 0.722 OD | 0.055 OD and 0.059 OD | 0.344 OD and 0.34 OD | 0.054 OD and 0.065 OD | 0.796 OD and 0.763 OD | 0.073 OD and 0.071 OD | ELISA OD [13]: 1.94 OD and 1.84 OD; ELISA OD [14]: 0.071 OD and 0.068 OD; ELISA OD [21]: 1.17 OD and 1.25 OD; ELISA OD [22]: 0.066 OD and 0.071 OD; ELISA OD [25]: 1.55 OD and 1.51 OD; ELISA OD [26]: 0.126 OD and 0.095 OD |
| PG16 (antibody) |  | 0.092 OD | 0.164 OD | 0.226 OD and 0.245 OD | 0.513 OD | 0.217 OD | 0.097 OD | 0.8 OD | 0.244 OD | 0.302 OD | 0.111 OD and 0.136 OD | 0.155 OD and 0.143 OD | 0.065 OD and 0.075 OD | 0.107 OD and 0.112 OD | 0.064 OD and 0.071 OD | 0.129 OD and 0.11 OD | 0.063 OD and 0.097 OD | 0.101 OD and 0.122 OD | 0.063 OD and 0.061 OD | 0.156 OD and 0.105 OD | ELISA OD [25]: 0.081 OD and 0.096 OD; ELISA OD [26]: 0.195 OD and 0.122 OD |
| PGT145 (antibody) | 0.219 OD | 0.15 OD | 0.074 OD | 0.111 OD and 0.089 OD | 0.092 OD | 0.518 OD | 0.112 OD | 0.094 OD | 0.11 OD | 0.146 OD |  |  |  |  |  |  |  |  |  |  |  |
